Changes are numbered by the printed parent chain. Where two headings read alike, the source gives them in different places.
Columns and labels:
[1] = molecular target: T1, human TGFβ2, mature receptor-binding domain (human, UniProt P09858 303-414 (pig entry), The mature TGFβ2 is a disulfide-linked homodimer of this 112-residue chain. The 4A11 epitope spans both monomers (p-1207).); test: BIAcore T200
T1 construct: Peprotech; also called TGFb2
T1 sequence: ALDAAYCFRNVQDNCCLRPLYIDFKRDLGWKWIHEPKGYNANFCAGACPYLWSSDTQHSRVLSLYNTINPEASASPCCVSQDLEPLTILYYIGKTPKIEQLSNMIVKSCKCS
Protocol: (§1) For binding affinity determinations of all humanized 2A10 antibodies, Surface Plasmon Resonance (SPR) measurement with a BIAcore™-T200 instrument was used. Briefly, series S CM5 biosensor chip with protein A was first applied to capture each humanized 2A10 variant to achieve approximately 100 response units (RU) on each flow cell, following by injection of 3-fold serial dilutions of human TGFβ1, TGFβ2 or TGFβ3 (0.02 nM to 5 nM) in HBS-EP buffer (0.01M HEPES pH 7.4, 0.15M NaCl, 3 mM EDTA and 0.05% v/v surfactant P20) at 25° C. with a flow rate of 50 μl/min for kinetics measurement. Association rates (ko.) and dissociation rates (koff) were calculated using a simple one-to-one Langmuir binding model (BIAcore T200 evaluation software version 2.0) to determine the equilibrium dissociation constant (KD), which was calculated as the ratio koff/kₒₙ.
(§2) Binding affinity determinations of all humanized 4A11 antibodies were performed using SPR measurement with a BIAcore™-T200 instrument, as described above in Example 6 ([…]).

[2] = molecular target: T2, human TGFβ3, mature dimeric form (human, UniProt P10600 301-412); test: BIAcore T200
T2 construct: Peprotech, expressed in E. coli; also called TGFb3
T2 sequence: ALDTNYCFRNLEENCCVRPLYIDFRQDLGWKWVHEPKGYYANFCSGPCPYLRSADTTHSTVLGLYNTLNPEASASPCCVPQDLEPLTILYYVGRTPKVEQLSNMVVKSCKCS
Protocol: as §1, §2

[3] = molecular target: T1, human TGFβ2, mature receptor-binding …; test: cell-based or functional assay
[4] = molecular target: T3, human TGFβ1, mature receptor-binding domain (human, UniProt P01137 279-390); test: cell-based or functional assay
T3 sequence (P01137 279-390 limits assumed): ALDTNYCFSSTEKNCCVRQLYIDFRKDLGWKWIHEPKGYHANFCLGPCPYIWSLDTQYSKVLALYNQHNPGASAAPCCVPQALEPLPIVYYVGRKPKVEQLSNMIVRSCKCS

[5] = molecular target: T2, human TGFβ3, mature dimeric form; test: cell-based or functional assay
[6] = molecular target: T1, human TGFβ2, mature receptor-binding …; test: cell-based or functional assay; remark: listed apart in the source
[7] = molecular target: T3, human TGFβ1, mature receptor-binding …; test: cell-based or functional assay; remark: listed apart in the source
[8] = molecular target: T2, human TGFβ3, mature dimeric form; test: cell-based or functional assay; remark: listed apart in the source
[9] = molecular target: T1, human TGFβ2, mature receptor-binding …; test: cell-based or functional assay; remark: listed apart in the source
[10] = molecular target: T3, human TGFβ1, mature receptor-binding …; test: cell-based or functional assay; remark: listed apart in the source
[11] = molecular target: T2, human TGFβ3, mature dimeric form; test: cell-based or functional assay; remark: listed apart in the source
[12] = molecular target: T1, human TGFβ2, mature receptor-binding …; test: BIAcore T200; remark: listed apart in the source
Protocol: as §1, §2

[13] = molecular target: T3, human TGFβ1, mature receptor-binding …; test: BIAcore T200
Protocol: as §1, §2

[14] = molecular target: T2, human TGFβ3, mature dimeric form; test: BIAcore T200; remark: listed apart in the source
Protocol: as §1, §2

[15] = molecular target: T1, human TGFβ2, mature receptor-binding …; test: BIAcore T200; remark: listed apart in the source
Protocol: as §1, §2

[16] = molecular target: T3, human TGFβ1, mature receptor-binding …; test: BIAcore T200; remark: listed apart in the source
Protocol: as §1, §2

[17] = molecular target: T2, human TGFβ3, mature dimeric form; test: BIAcore T200; remark: listed apart in the source
Protocol: as §1, §2

[18] = molecular target: T1, human TGFβ2, mature receptor-binding …; test: cell-based or functional assay; remark: listed apart in the source
[19] = molecular target: T4, mouse TGFβ2, mature peptide (mouse, UniProt P27090 303-414); test: cell-based or functional assay
T4 sequence (looked up): T1 sequence with S59T, R60K, K94N

[20] = molecular target: T1, human TGFβ2, mature receptor-binding …; test: BIAcore T200; remark: listed apart in the source
[21] = molecular target: T1, human TGFβ2, mature receptor-binding …; test: cell-based or functional assay; remark: listed apart in the source
[22] = molecular target: T1, human TGFβ2, mature receptor-binding …; test: Biacore SPR
[23] = molecular target: T4, mouse TGFβ2, mature peptide; test: Biacore SPR
[24] = molecular target: T1, human TGFβ2, mature receptor-binding …; test: cell-based or functional assay; remark: listed apart in the source
[25] = molecular target: T3, human TGFβ1, mature receptor-binding …; test: cell-based or functional assay; remark: listed apart in the source
[26] = molecular target: T2, human TGFβ3, mature dimeric form; test: cell-based or functional assay; remark: listed apart in the source
[27] = molecular target: T1, human TGFβ2, mature receptor-binding …; test: cell-based or functional assay; remark: listed apart in the source
[28] = molecular target: T3, human TGFβ1, mature receptor-binding …; test: cell-based or functional assay; remark: listed apart in the source
[29] = molecular target: T2, human TGFβ3, mature dimeric form; test: cell-based or functional assay; remark: listed apart in the source
[30] = molecular target: T1, human TGFβ2, mature receptor-binding …; test: cell-based or functional assay; remark: listed apart in the source
[31] = molecular target: T3, human TGFβ1, mature receptor-binding …; test: cell-based or functional assay; remark: listed apart in the source
[32] = molecular target: T2, human TGFβ3, mature dimeric form; test: cell-based or functional assay; remark: listed apart in the source
[33] = molecular target: T1, human TGFβ2, mature receptor-binding …; test: SPR
[34] = molecular target: T1, human TGFβ2, mature receptor-binding …; test: SPR; remark: listed apart in the source

B1: h4A11.v7 (antibody, human IgG1, kappa, N297G)
heavy: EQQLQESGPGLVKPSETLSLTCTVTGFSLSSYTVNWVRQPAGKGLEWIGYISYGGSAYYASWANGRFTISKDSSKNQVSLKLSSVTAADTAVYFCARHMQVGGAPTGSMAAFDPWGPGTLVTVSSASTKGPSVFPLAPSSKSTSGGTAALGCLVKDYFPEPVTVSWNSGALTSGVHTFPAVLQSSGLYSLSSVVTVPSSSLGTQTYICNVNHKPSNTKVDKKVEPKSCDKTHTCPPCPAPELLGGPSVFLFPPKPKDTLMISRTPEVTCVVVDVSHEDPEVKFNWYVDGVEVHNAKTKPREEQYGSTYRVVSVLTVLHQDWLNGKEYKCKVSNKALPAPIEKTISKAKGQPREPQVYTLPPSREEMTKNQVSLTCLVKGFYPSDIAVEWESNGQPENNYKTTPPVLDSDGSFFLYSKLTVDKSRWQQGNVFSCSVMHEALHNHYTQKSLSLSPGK
light: EAVLTQSPGTLSLSPGERATLSCQSSQSVYNNNYLSWFQQKPGQPPRLLIYGASTLTSGVPDRFSGSGSGTDFTLTISRLEPEDFAVYYCAGGYSGSSDKYAFGGGTKVEIKRTVAAPSVFIFPPSDEQLKSGTASVVCLLNNFYPREAKVQWKVDNALQSGNSQESVTEQDSKDSTYSLSSTLTLSKADYEKHKVYACEVTHQGLSSPVTKSFNRGEC
Kd [1]: 0.0063 nM
Kd [2]: 0.0097 nM
HEKBlue TGFβ blocking IC50 [3]: 0.09 nM
HEKBlue TGFβ blocking IC50 [4]: > 200 nM
HEKBlue TGFβ blocking IC50 [5]: 0.03 nM
HEKBlue TGFβ blocking IC50 [6]: 0.09 nM
HEKBlue TGFβ blocking IC50 [7]: > 200 nM
HEKBlue TGFβ blocking IC50 [8]: 0.03 nM
HEKBlue TGFβ blocking IC50 [9]: 0.09 nM
HEKBlue TGFβ blocking IC50 [10]: > 200 nM
HEKBlue TGFβ blocking IC50 [11]: 0.03 nM
Kd [12]: 0.0063 nM
Kd [13]: > 5 nM
Kd [14]: 0.0097 nM
Kd [15]: 0.0063 nM
Kd [16]: > 5 nM
Kd [17]: 0.0097 nM

B2: 6F12 (antibody, V domains shown)
VH: QVQLKESGPGLVQPSQTLSLTCTVSGFSLTTYNVHWVRQPPGKGLEWMGLIWNTGGTRYNSALKSRLSISKDTSKSQVFLRMNSLQTEDTATYYCARDPVPNKWHFDFWGPGTMVTVSS
VL: DIQMTQSPASLSASLGETVTIECLASEDIYSNLAWYQQKPGKSPQLLIYDARSLQDGVPSRFSGSESGPQYSLEINSLQSEDAVTYFCQQHHAYPFTFGSGTKLEIK
notes: anti-TGFβ2; called rat and rabbit in different places; also called rat 6F12; r6F12
IC50 (read off the curve) [18]: ~0.03 nM
IC50 (read off the curve) [19]: ~0.06 nM
Kd [20]: ≤ 0.0005 nM
cell-based IC50 [21]: < 0.25 nM
fold potency against 1D11 [21]: ~100 fold
Kd [22]: < 0.001 nM
Kd [23]: < 0.001 nM
Blocking IC50 [24]: 0.04 nM
Blocking IC50 [25]: > 500 nM
Blocking IC50 [26]: > 500 nM
HEKBlue TGFβ blocking IC50 [27]: 0.004 nM
HEKBlue TGFβ blocking IC50 [28]: > 200 nM
HEKBlue TGFβ blocking IC50 [29]: > 200 nM
HEKBlue TGFβ blocking IC50 [30]: 0.004 nM
HEKBlue TGFβ blocking IC50 [31]: > 200 nM
HEKBlue TGFβ blocking IC50 [32]: > 200 nM
Kd [33]: < 0.001 nM
Kd [34]: < 0.01 nM

From patent US20210301005A1 (Genentech, published 2021)
